Data set [1] concerns T1, O=[N+]([O-])c1ccc(O[C@@H]2O[C@@H](CO)[C@H](O)[C@H]2O)cc1.
T1 construct: mature form without 18-residue signal peptide (54 bp), gene 1223 bp with one intron, 368 residues, 39 kDa, N-terminal CBM1, Ser/Thr-rich linker and GH62 domain; secreted from Pichia pastoris GS115 (pPIC9), N-glycosylated, about 50 kDa on SDS-PAGE; forward primer encodes QASLYGQ after the EcoRI site, reverse primer encodes C-terminal LLTLSK
Description: purified protein. It is filed as biochemical, Talaromyces amestolkiae. The settings on record: standard reaction: 50 mM sodium acetate pH 5, 50 °C, 0.1% BSA, substrate 0.0625-16 mM.

Data set [2] concerns T2, O=[N+]([O-])c1ccc(O[C@@H]2O[C@@H](CO)[C@H](O)[C@H]2O)cc1.
T2 construct: secreted from Pichia pastoris GS115 (pPIC9), N-glycosylated, about 37 kDa on SDS-PAGE; forward primer encodes LPTDETA after the EcoRI site, reverse primer encodes C-terminal PGLLTHK
In words: purified protein. The class given is biochemical, Talaromyces amestolkiae. The settings on record: standard reaction: 50 mM sodium acetate pH 5, 50 °C, 0.1% BSA, substrate 0.0625-16 mM.

Sequence of ARA-2 (Talaromyces amestolkiae) (chain, as listed by the source): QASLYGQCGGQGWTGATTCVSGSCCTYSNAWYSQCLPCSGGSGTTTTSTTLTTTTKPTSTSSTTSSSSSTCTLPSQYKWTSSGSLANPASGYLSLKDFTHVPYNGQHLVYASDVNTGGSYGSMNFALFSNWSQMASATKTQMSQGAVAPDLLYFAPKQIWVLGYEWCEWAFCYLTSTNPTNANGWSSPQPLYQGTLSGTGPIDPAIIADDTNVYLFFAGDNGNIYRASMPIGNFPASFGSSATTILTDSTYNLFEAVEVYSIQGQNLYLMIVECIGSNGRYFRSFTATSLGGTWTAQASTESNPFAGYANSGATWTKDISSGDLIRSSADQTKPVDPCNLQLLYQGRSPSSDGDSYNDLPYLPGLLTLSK
Sequence of ARA-1 (Talaromyces amestolkiae) (chain, as listed by the source): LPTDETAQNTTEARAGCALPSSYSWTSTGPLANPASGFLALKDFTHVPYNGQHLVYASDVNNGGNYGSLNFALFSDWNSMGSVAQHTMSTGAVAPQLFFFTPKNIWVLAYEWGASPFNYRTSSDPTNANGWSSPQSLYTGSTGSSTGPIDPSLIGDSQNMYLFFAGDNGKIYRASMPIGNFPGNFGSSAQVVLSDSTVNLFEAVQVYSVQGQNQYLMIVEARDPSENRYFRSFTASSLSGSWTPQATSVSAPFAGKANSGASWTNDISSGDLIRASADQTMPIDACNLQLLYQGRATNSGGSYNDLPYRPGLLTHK

Consider ARA-2 (Talaromyces amestolkiae), for which, in data set [1], the Km is 1.48 ± 0.08 mM, the kcat is 0.41 ± 0.01 s⁻¹ and the catalytic efficiency (kcat/Km) was determined as 280 ± 10 M⁻¹ s⁻¹.

Regarding ARA-1 (Talaromyces amestolkiae), in data set [2], the Michaelis-Menten constant (Km) was found to be 8.97 ± 0.06 mM, the turnover number (kcat) was determined as 0.05 ± 0.001 s⁻¹ and the catalytic efficiency (kcat/Km) turned out to be 5 ± 0.4 M⁻¹ s⁻¹.

Broadly, the Km is the concentration of substrate that gives half-maximal velocity. The kcat is the maximal rate divided by the concentration of active sites. The term kcat/Km denotes the turnover number divided by the Michaelis constant.

The record behind these values is PMC10418624, “Expression and Characterization of Two α-L-Arabinofuranosidases from Talaromyces amestolkiae: Role of These Enzymes in Biomass Valorization” (International Journal of Molecular Sciences, 2023).
